Measurements as given in the supplement of paper PMC9170038.

Tested on: MS2 coat protein
Test: apparent KD of MS2 coat protein; designed switch direction (-1 OFF switch, 1 ON switch): -1; higher = weaker reporter binding
In short: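 Normalised cluster fluorescence was curve-fitted, and each design's median over clusters is its apparent KD. Before this, SNAP-549-labelled MS2 coat protein was titrated from 0.7 or 1.5 nM, doubling to 3 µM, over RNA switches transcribed on Illumina chips by stalled E. coli RNA polymerase. Titrations had no input, 200 uM small-molecule ligand, or an oligonucleotide input, and steps lasted 0.8–1.5 h (lowest) to 10–20 min (highest).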

[1] = input ligand: microRNA oligo, concentration not stated
[2] = Eterna round: R95, input ligand: microRNA oligo, concentration not stated
[3] = Eterna round: R95, input ligand: FMN 200 uM
[4] = Eterna round: R95, input ligand: none

Sequence	apparent KD of MS2 coat protein (input ligand: FMN 200 uM)	apparent KD of MS2 coat protein (input ligand: none)	apparent KD of MS2 coat protein [1]	apparent KD of MS2 coat protein [2]	apparent KD of MS2 coat protein [3]	apparent KD of MS2 coat protein [4]
CAAACCAGAGGAUAUGCGCAUAGAUCAGACUUUGUUUCUGAACAUGAGGAUCACCCAUGUAGAAGGCUGUAAAA [Ex2 #83] (Eterna round: R97, puzzle: Exclusion 2)	28.1 nM	29.7 nM				
GCACGGAGUGUAGGAUAUUAGUGCGAUUAGCACUGAGAAGGACAUGAGGAUCACCCAUGUUCCUCUAAAAUUAGCCUUCCGUGC [Eli exng1 - 036] (Eterna round: R96, puzzle: Exclusion NG 1)	12.4 nM	14.8 nM	10.7 nM			
CGUAUGUGAGGAUAUGACAAUGGUAUCUUCGGAUACCAUUGUCAGAAGGAACAUGAGGAUCACCCAUGUAGAUC (puzzle: Exclusion 4)				44.8 nM		
AGUUGUUCAGGAUAUGAUGUAUGUUACAUGAGGAUCACCCAUGUAGGUCCUGGAUAUGUAUCAGAAGGGAAUAUCU [JR_Ex5_Sub059] (Eterna round: R97, puzzle: Exclusion 5)	40.8 nM	32 nM				
ACAUGAGGAUCACCCAUGUACAGGGUGUAGUUUCAUUGUUUGAAGGAUAUACUUAGUUAGUUGUUGUAGAAGGUCAUAUUUCAU [JR_ExcNG3_Sub001] (Eterna round: R96, puzzle: Exclusion NG 3)	126 nM	1040 nM	500 nM			
UACAUGAGGAUCACCCAUGUUUUGUCGUGUAUGGUACCCAUCUAGGAUAUCGUGUUAUUGGACCACGAGAAGGAGAGUAUCAAU [Excl-NG3-LRO01] (Eterna round: R96, puzzle: Exclusion NG 3)	19.2 nM	24.1 nM	18.1 nM			
CCAUCGAGUGUGAGGAUAUGCUGGUCCUUGGAUCAGCAGAAGGCACAUGAGGAUCACCCAUGUGGAUACGGUGG [JL bmx4 3.19] (puzzle: Brourd's mod of Exclusion 4)				30 nM		
UUAAGGGACUGAGGAUAUACAUGAAUUAUGUUUGUAGAAGGCAGAUUGUUAGUUUAUUCACUAUACAUGAGGAUCACCCAUGUU [JR_ExcNG1_Sub019] (Eterna round: R96, puzzle: Exclusion NG 1)			17.1 nM			
CAGUACUGAGGAUAUACAUGAGGAUCACCCAUGUGUCCCUGCUAGGAAACUAGCAAAAGUAGAAGGCAGUACUG [Fiskers Ex 3 828 mod 3] (puzzle: Exclusion 3)				21.3 nM	298 nM	21.2 nM
AGCUUUGCUGCUCGUCCCAACAUGAGGAUCACCCAUGUUCUUAUGAAACCAUCUAGCCUAGAUGGGUCUUGCCAAAG [Eternabot (Original) Solution 47] (Eterna round: R97, puzzle: Sensor, turn-off variant 1)	27.1 nM	29.1 nM				
UGUCAGAUGGUAGGAUAUCCGUAUCGCGUGUCCCUUUCCUAACAUGAGGAUCACCCAUGUCGGUGGGAGAAGGGCCGUAUGGUG [salish99_ExNG02_R04_037] (Eterna round: R96, puzzle: Exclusion NG 2)	12.9 nM	15.3 nM	10.6 nM			
CGAUAAUCCAAGGAUAUGCUAGACGAAAGUCUAGCAGAAGGUGGAACAUGAGGAUCACCCAUGUGUCCAAAUCG [Mat - Exclusion 6 - Eli Mod - D27] (Eterna round: R97, puzzle: Exclusion 6)	22.2 nM	14.7 nM				
ACAGUGUUAGGAUAUCUGAGAAUUAGUCUCGACUAGUCGAAGGAGAAGGAACAUGAGGAUCACCCAUGUAGAUC [EX4 #76] (Eterna round: R97, puzzle: Exclusion 4)	295 nM	41.6 nM				
AAACGGGUGUCCUCGUUUUCAACAUGAGGAUCACCCAUGUUCGAGGAUAUCCGAUAAGCUCUUCAGGAGAAGGCGAACAUAAAA [Eninenat] (Eterna round: R96, puzzle: Exclusion NG 3)	14.7 nM	18.4 nM	32.1 nM			
GCGAUAACCGAGGAUAUCGGUGAUAGAGAUAAUUGAGAAGGCGGUACAUGAGGAUCACCCAUGUAUACGUGGGC [Eternabot (L2) Solution 87] (Eterna round: R97, puzzle: Exclusion 6)	16.7 nM	15.7 nM				
GUUAUGCAGCAGGAUAUCGAUCCGCGGUAUGAUCGAGAAGGGCUGACAUGAGGAUCACCCAUGUGCGUCCUAGG [jl-ex6-4.46 ViennaUCT mod] (Eterna round: R97, puzzle: Exclusion 6)	170 nM	36.6 nM				
CCGCCGCAAGGAUAUACUUGCGGUGAUGUUCGAGUUCUUCUACUUGAGGAUCACCCAAGUAGAAGGUGCAAAAC [jl-ex2.4.59 ViennaUCT mod] (Eterna round: R97, puzzle: Exclusion 2)	13 nM	12.5 nM				

Sequence	apparent KD of MS2 coat protein (input ligand: FMN 200 uM)	apparent KD of MS2 coat protein (input ligand: none)	apparent KD of MS2 coat protein [1]	apparent KD of MS2 coat protein [2]	apparent KD of MS2 coat protein [3]	apparent KD of MS2 coat protein [4]
ACAAGCUCUUUGCAACUUAGUUUUGUUGCUUCGUAGGUAACAUGAGGAUCACCCAUGUAAGACUGAUGUCGUCUUAU [JR_SV3TOV2_Sub086] (puzzle: Sensor v3, turn-off variant 2)				21.4 nM	33.1 nM	36.8 nM
CUGGUCCGAGGAUAUAUUAUGUGAUACAUGAGGAUCACCCAUGUUAUAUGAUGGAUGUUAAUAGAAGGCGGACUAG [JL-ex5-3.20] (puzzle: Exclusion 5)				109 nM	109 nM	184 nM
CCUGUGCUAUAGGAUAUGGCUUAGCAAUAUGCGCCAGAAGGAUAGACAUGAGGAUCACCCAUGUACGACGAAGC [Eternabot (L2) Solution 65] (Eterna round: R97, puzzle: Exclusion 6)	35.9 nM	24.3 nM				
AGAUAACAUGAGGAUCACCCAUGUCAGGAUAUCGACUGAACAGCUUCGGCUGUUCAGUCGAGAAGGGACAAUUA [Brourdxlusion 9 - Jieux - Exclusion 1] (Eterna round: R97, puzzle: Exclusion 1)	84.1 nM	61.2 nM				
GCAGGCGUCUUGGCUCGUCUUAUUUUGAGAGGAUUGAUAACAUGAGGAUCACCCAUGUUUGUGGGAGAGUUGCAGUG [JR_SV3TOV2_Sub016] (puzzle: Sensor v3, turn-off variant 2)				283 nM	108 nM	133 nM
GAAAAGGUAGAGGAUAUUUCAGAUCAAAGCUGCAAAGAAGGCUGCACAUGAGGAUCACCCAUGUGGUCUUUAAA [Mod of Quesina 10 - Jieux - Exclusion 6] (Eterna round: R97, puzzle: Exclusion 6)	70.1 nM	17.6 nM				
AGGAGCAGAGGGAGAUCCAACAUGAGGAUCACCCAUGUCUCAUAAGCUUUUUGCUCAUCUUAUUGUACCUUGGUGCA [Mat - Sensor v3 - turn-off var 1 - JL Mod - D27] (puzzle: Sensor v3, turn-off variant 1)				12.5 nM	29.2 nM	22.3 nM
UUGAUACAUGAGGAUCACCCAUGUUAGGAUAUACGCAUGCAUGCAUGCAUGCAUGCAAGUAGAAGGAACCAUGC [Design #1] (Eterna round: R97, puzzle: Exclusion 1)	30.7 nM	42 nM				
UAUUAGCAAGUAAGGUCCCACAUGAGGAUCACCCAUGUGCUCGUCUCCUCAGGUACGGAGUGGAAACUCCCGAUAUG [Sensor-V1 #93] (Eterna round: R97, puzzle: Sensor, turn-off variant 1)	84.7 nM	76 nM				
GUACGGUAAGGAUAUUGGAGGCCAAAGCACGAGUAGUACUCUAAGAAGGUACAUGAGGAUCACCCAUGUACGAG [Eternabot (L2) Solution 63] (Eterna round: R97, puzzle: Exclusion 4)	18.8 nM	16.9 nM				
UUCAGACAUGAGGAUCACCCAUGUGAGGAUAUGAUGCGAUCGUCGAAAGACGAUAGCAUCAGAAGGCACAUAUG [Fiskers Ex 1 - 17] (puzzle: Exclusion 1)				153 nM		
AAACCCUGAGGAUAUGCAUAACAACAAAGCCUCACGUGCCAACAUGAGGAUCACCCAUGUAGAAGGCGGGCCAA [Mod R3 Insanara 18 - Jieux - Exclusion 2] (Eterna round: R97, puzzle: Exclusion 2)	24.3 nM	15.7 nM				
CAAAAGGAAGGAUAUGAUAAGCAGGACAUGAGGAUCACCCAUGUGACUGCCUCGUGGACAUCAGAAGGUCCAGGAC [Erqureorle] (puzzle: Exclusion 5)				17.2 nM	43.2 nM	13.8 nM
GAGGGAGGAGGAUAUUCCUUCGAGAACAUGAGGAUCACCCAUGUGUUAUAUCGAAAGCCCGAAGAAGGCCUCGCUA [Eternabot (Original) Solution 50] (Eterna round: R97, puzzle: Exclusion 5)	17.5 nM	20.2 nM				
CAUACUCAAGUGAGGAUAUUGUCUCGGAUACGAAACAAGAAGGCACAUGAGGAUCACCCAUGUAGAGAGUAAAG [EX-4 Malc #30] (puzzle: Brourd's mod of Exclusion 4)				25.1 nM	136 nM	25.6 nM
UUGCAGUCGUCAGGAUAUAGUAUUACGGCCUUUCAUUUCUUCAUACAUGAGGAUCACCCAUGUCGCUAGAAGGGAUUAUCGAUU [salish99_ExNG2_r04_106] (Eterna round: R96, puzzle: Exclusion NG 2)	16 nM	23 nM	17.1 nM			
AUAUUACAUGAGGAUCACCCAUGUGAGGAUAUGGAGCGCGACCGCCCGGUCGCGUACACCAGAAGGCGCGGGCG [1st #57] (Eterna round: R97, puzzle: Exclusion 1)	46.2 nM	22.3 nM				
